Test [1] deals with T1, native cell surface CEMIP/KIAA1199 on human MKN45 gastric and N2LA lung cancer cells (human, UniProt Q8WUJ3 31-1361).
T1 construct: Endogenous CEMIP on live CEMIP-high human cell lines (MKN45, N2LA), the target in flow cytometry; also called native CEMIP expressed on the surface
T1 sequence: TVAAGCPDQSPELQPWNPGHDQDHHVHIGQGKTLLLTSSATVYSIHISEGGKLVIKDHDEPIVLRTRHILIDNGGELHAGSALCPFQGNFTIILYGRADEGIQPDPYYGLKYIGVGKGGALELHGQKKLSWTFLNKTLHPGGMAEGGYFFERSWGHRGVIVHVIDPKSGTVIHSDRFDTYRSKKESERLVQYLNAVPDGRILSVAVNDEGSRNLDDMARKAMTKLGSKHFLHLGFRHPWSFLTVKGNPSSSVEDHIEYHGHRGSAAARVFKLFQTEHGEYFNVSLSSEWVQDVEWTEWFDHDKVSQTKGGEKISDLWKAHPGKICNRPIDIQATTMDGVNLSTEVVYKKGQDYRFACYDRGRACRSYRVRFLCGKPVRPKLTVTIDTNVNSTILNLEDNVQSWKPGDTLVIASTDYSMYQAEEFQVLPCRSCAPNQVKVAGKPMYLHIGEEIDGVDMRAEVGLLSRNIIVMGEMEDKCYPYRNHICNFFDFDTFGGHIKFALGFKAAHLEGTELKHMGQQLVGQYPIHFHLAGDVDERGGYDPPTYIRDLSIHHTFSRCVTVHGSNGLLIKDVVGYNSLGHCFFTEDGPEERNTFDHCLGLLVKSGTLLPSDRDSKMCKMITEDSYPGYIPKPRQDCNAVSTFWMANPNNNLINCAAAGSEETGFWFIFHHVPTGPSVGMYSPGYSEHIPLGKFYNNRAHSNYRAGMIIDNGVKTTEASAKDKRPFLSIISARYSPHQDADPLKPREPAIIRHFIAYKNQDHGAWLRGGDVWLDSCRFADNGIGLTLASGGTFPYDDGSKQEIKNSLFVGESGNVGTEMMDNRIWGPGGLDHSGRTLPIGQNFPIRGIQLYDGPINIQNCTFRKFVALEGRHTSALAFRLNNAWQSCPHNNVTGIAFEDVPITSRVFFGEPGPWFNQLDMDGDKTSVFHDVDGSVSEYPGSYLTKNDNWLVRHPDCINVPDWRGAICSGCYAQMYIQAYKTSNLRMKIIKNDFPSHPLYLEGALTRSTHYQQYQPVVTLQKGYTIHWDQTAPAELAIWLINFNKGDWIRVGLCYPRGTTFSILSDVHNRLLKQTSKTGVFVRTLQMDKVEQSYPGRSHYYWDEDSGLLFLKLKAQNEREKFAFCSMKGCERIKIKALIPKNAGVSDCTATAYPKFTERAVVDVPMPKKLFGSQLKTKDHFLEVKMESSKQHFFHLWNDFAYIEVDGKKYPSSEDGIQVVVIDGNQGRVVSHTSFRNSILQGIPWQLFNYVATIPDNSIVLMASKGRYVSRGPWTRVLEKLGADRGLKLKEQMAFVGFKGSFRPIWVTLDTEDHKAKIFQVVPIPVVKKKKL
Briefly: flow cytometry on MKN45 cells. (In general: Flow cytometry measures light scatter and fluorescence of single cells or particles in a stream.)

Test [2] deals with T2, recombinant/purified KIAA1199/CEMIP protein (amino acids 1-649) (human, UniProt Q8WUJ3 31-649).
T2 construct: Truncated CEMIP used as immunogen and as ELISA antigen; also called truncated version of KIAA1199/CEMIP protein
T2 sequence: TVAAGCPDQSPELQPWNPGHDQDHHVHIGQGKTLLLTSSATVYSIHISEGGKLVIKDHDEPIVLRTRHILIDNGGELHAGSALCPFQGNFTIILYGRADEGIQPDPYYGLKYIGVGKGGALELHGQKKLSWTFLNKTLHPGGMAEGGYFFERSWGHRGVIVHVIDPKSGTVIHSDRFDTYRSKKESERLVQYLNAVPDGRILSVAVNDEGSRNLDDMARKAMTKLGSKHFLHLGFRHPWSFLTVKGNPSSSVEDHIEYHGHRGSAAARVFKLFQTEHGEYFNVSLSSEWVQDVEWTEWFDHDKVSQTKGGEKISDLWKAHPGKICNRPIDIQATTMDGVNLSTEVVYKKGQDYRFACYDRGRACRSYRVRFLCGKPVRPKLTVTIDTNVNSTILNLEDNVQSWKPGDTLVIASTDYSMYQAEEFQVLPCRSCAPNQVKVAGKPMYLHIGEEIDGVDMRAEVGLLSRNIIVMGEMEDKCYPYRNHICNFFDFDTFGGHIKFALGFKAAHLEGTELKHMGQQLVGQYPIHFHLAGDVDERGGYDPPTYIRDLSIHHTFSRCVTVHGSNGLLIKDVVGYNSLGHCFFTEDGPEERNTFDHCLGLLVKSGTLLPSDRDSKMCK
Briefly: ELISA on recombinant CEMIP, purified antibody (with flow cytometry as second assay). (In general: An ELISA detects its analyte on a solid surface through an enzyme-linked reagent.)

In test [3] the target is T1, native cell surface CEMIP/KIAA1199 on …. Briefly: flow cytometry on live MKN45 and N2LA cells, purified antibody. On the procedure: The binding of anti-CEMIP antibodies to native CEMIP expressed on the surface of human MKN45 gastric and N2LA lung cancer cell lines is shown.
Purified monoclonal antibodies were tested in secondary flow-cytometry screens on 2 CEMIPhi cell lines, MKN45 and N2LA (FIG. 13). Flow cytometry is performed on live cells, and antibodies bind to the native cell surface CEMIP/KIAA1199. Three antibody clones with high affinity and specificity for human KIAA1199/CEMIP were identified from the first screen: 07F11C02, 10F01B02 and 01F11A01, and the sequence of these antibodies was obtained (Table 12). One of these clones resulted from the protein immunization and two resulted from the DNA immunization (FIG.

B1: 12D08 (antibody, mouse IgG2a, kappa, V domains shown)
VH: EVQLQQSGAELVKPGASVKLSCTASGFNIKDTYMHWVKQRPEQGLIWIGNIDPANGHTKYAPKFQGKATITADTSSNTAYLQLSSLTSEDTAVYYCARSNDYDVDFDYWGQGTTLTVSS
VL: DIVMSQSPSSLAVSAGEKVTMSCKSSQSLLNSRTRKNYLAWYQQKPGQSPKLLIYWASTRESGVPDRFTGSGSGTDFSLTISSVQAEDLAVYYCKQSYNLYTFGGGTKLEIKR
notes: Mouse monoclonal from hybridoma (second phase screen), IgG2a kappa; also called cAb5777
Turning to B1, the binding result in test [1] and in test [2] was “binds” in each case.

B2: 07F11C02 (antibody, mouse IgG2a, kappa, V domains shown)
VH: DVQLVESGGGLVQPGGSRKLSCAASGFAFSSFGMHWVRQAPERGLEWVAYISSASNTIYYADTVKGRFTISRDNPKSTLFLQMTSLRSEDTAIYYCAKRDWDLYAMDYWGQGTSVTVSS
VL: DIVMTQSQKFLSTSVGDRVTITCKASQNVGTAVAWYQQKPGQSPELLIYSASNRHTGVPARFTGSGSGTDFTLTITNMQSEDLADYFCQQYSSSPTFGGGTKLESKR
notes: Mouse monoclonal purified from hybridoma, IgG2a kappa; also called cAb4853
B2: in test [3], the binding result was “binds”.

B3: 13G04 (antibody, mouse IgG1, kappa, V domains shown)
VH: EVHLQQSGPELVKPGASMKISCKASGYSFTAYTMNWVKQSHGKNLEWIGLINPYNGGTTYNQKFKGKATLTVDKSSSTAYMELLSLTSEDSAVYYCASYYGGRGWYFDVWGAGTSVTVSS
VL: DIVLTQSPASLAVSLGQRATISCRASKSVSTSGYSYVHWYQQKPGQPPKLLIYLASNLESGVPARFSGSGSGTDFTLNIHPVEEEDAATYYCQNSRELPYTFGGGTKLEMKR
notes: Mouse monoclonal from hybridoma (second phase screen), IgG1 kappa; also called cAb5778
With B3, the binding result in test [1] and in test [2] was “binds” throughout.

B4: 12D02 (antibody, mouse IgG1, kappa, V domains shown)
VH: EVQLQQSGPELVKPGASMKISCKASGYSFTAYTMNWVKQSHGENLEWIGLINPYNGGTTYNQKFKGKATLTVDKSSSTAYMELLSLTSEDSAVYYCASYDYGYAMDYWGQGTSVTVSS
VL: DVLMTQTPLSLPVSLGDQASISCRSSQSIVHRNGNTYLEWYLQKPGQSPKLLIYKVSNRFSGVPDRFSGSGSGTDFTLKISRVEAEDLGVYYCFQGSHVPWTFGGGTKLEIKR
notes: Mouse monoclonal from hybridoma (second phase screen), IgG1 kappa; also called cAb5775
B4: the binding result in test [1] and in test [2] was “binds” throughout.

B5: 12A12 (antibody, mouse IgG1, kappa, V domains shown)
VH: EVQLQQSGPELVKPGVSMKISCKASGYSFTAYTMNWVKQSHGENLEWIGLINPYNGGTTYNQKFKGKATLTVDKSSSTAYMELLSLTSEDSAVYYCASYDYGYAMDYWGQGTSVTVSS
VL: DVLMTQTPLSLPVSLGDQASISCRSSQSIVHRSGNTYLEWYLQKPGQSPKLLIYKVSNRFSGVPDRFSGSGSGTDFTLKISRVEAEDLGVYYCFQGSHVPWTFGGGTKLEIKR
notes: Mouse monoclonal from hybridoma (second phase screen), IgG1 kappa; also called cAb5776
Regarding B5, the binding result in test [1] and in test [2] was “binds” in each case.

These data come from patent publication US12613245 (CORNELL UNIVERSITY, dated 2026).
